Read-outs that look alike come from different tables or passages of the source.
B1: A5 IL-17A arm (antibody)
chain 1: EVQLVESGGGLVQPGGSLRLSCAASGIDFSTYGISWVRQAPGKGLEWIAYIYPDYGITDYASWVNGRFTISLDNAQNTVYLQMNSLRAEDTAVYYCARSGSYYSRGWGAHYFNLWGQGTLVTVSSASTKGPSVFPLAPSSKSTSGGTAALGCLVKDYFPEPVTVSWNSGALTSGVHTFPAVLQSSGLYSLSSVVTVPSSSLGTQTYICNVNHKPSNTKVDKKVEPKSCGGGGSGGGGSDIQMTQSPSSLSASVGDRVTITCQASQTINYWLAWYQQKPGKAPKLLIYRASTLASGVPSRFSGSGSGTDFTLTISSLQPEDFATYYCQNYYYSTSRSYGFGGGTKLTVLGGGGGSGGGGSGGGGSGGGGSEVQLVESGGGLVQPGGSLRLSCAASGFSFSSDYWMCWVRQAPGKGLEWIGCIYAGDVDDTDYASWARGRFTISRDNSKNTVYLQMNSLRAEDTAVYYCARVDGFDITYFDLWGQGTLVTVSS
chain 2: DIQMTQSPSSLSASVGDRVTINCQASESISSWLAWYQQKPGKRPKLLIYKASTLASGVPSRFSGSGSGTDYTLTISSLQPEDFATYYCQGYYLDSSVDDNVFGGGTKLTVLGRTRTVAAPSVFIFPPSDEQLKSGTASVVCLLNNFYPREAKVQWKVDNALQSGNSQESVTEQDSKDSTYSLSSTLTLSKADYEKHKVYACEVTHQGLSSPVTKSFNRGECGGGGSGGGGSDIQMTQSPSSLSASVGDRVTITCQSSESVYSNNQLSWYQQKPGQPPKLLIYDASDLASGVPSRFSGSGSGTDFTLTISSLQPEDFATYYCAGGFSSSSDTAFGGGTKLTVLGGGGGSGGGGSGGGGSGGGGSEVQLVESGGGLVQPGGSLRLSCAASGFSLSSNAMGWVRQAPGKGLEYIGIISVGGFTYYASWAKGRFTISRDNSKNTVYLQMNSLRAEDTATYFCARDRHGGDSSGAFYLWGQGTLVTVSS
B2: A3 HSA arm (antibody)
chain 1: EVQLVESGGGLVQPGGSLRLSCAASGFSLSSNAMGWVRQAPGKGLEYIGIISVGGFTYYASWAKGRFTISRDNSKNTVYLQMNSLRAEDTATYFCARDRHGGDSSGAFYLWGQGTLVTVSSASTKGPSVFPLAPSSKSTSGGTAALGCLVKDYFPEPVTVSWNSGALTSGVHTFPAVLQSSGLYSLSSVVTVPSSSLGTQTYICNVNHKPSNTKVDKKVEPKSCGGGGSGGGGSDIQMTQSPSSLSASVGDRVTITCQASQTINYWLAWYQQKPGKAPKLLIYRASTLASGVPSRFSGSGSGTDFTLTISSLQPEDFATYYCQNYYYSTSRSYGFGGGTKLTVLGGGGGSGGGGSGGGGSGGGGSEVQLVESGGGLVQPGGSLRLSCAASGFSFSSDYWMCWVRQAPGKGLEWIGCIYAGDVDDTDYASWARGRFTISRDNSKNTVYLQMNSLRAEDTAVYYCARVDGFDITYFDLWGQGTLVTVSS
chain 2: DIQMTQSPSSLSASVGDRVTITCQSSESVYSNNQLSWYQQKPGQPPKLLIYDASDLASGVPSRFSGSGSGTDFTLTISSLQPEDFATYYCAGGFSSSSDTAFGGGTKLTVLGRTRTVAAPSVFIFPPSDEQLKSGTASVVCLLNNFYPREAKVQWKVDNALQSGNSQESVTEQDSKDSTYSLSSTLTLSKADYEKHKVYACEVTHQGLSSPVTKSFNRGECGGGGSGGGGSDIQMTQSPSSLSASVGDRVTINCQASESISSWLAWYQQKPGKRPKLLIYKASTLASGVPSRFSGSGSGTDYTLTISSLQPEDFATYYCQGYYLDSSVDDNVFGGGTKLTVLGGGGGSGGGGSGGGGSGGGGSEVQLVESGGGLVQPGGSLRLSCAASGIDFSTYGISWVRQAPGKGLEWIAYIYPDYGITDYASWVNGRFTISLDNAQNTVYLQMNSLRAEDTAVYYCARSGSYYSRGWGAHYFNLWGQGTLVTVSS
B3: A3 IL-17A arm (antibody)
chain 1: B2 chain 1
chain 2: B2 chain 2
B4: A4 HSA arm (antibody)
chain 1: EVQLVESGGGLVQPGGSLRLSCAASGFSFSSDYWMCWVRQAPGKGLEWIGCIYAGDVDDTDYASWARGRFTISRDNSKNTVYLQMNSLRAEDTAVYYCARVDGFDITYFDLWGQGTLVTVSSASTKGPSVFPLAPSSKSTSGGTAALGCLVKDYFPEPVTVSWNSGALTSGVHTFPAVLQSSGLYSLSSVVTVPSSSLGTQTYICNVNHKPSNTKVDKKVEPKSCGGGGSGGGGSDIQMTQSPSSLSASVGDRVTITCQSSESVYSNNQLSWYQQKPGQPPKLLIYDASDLASGVPSRFSGSGSGTDFTLTISSLQPEDFATYYCAGGFSSSSDTAFGGGTKLTVLGGGGGSGGGGSGGGGSGGGGSEVQLVESGGGLVQPGGSLRLSCAASGFSLSSNAMGWVRQAPGKGLEYIGIISVGGFTYYASWAKGRFTISRDNSKNTVYLQMNSLRAEDTATYFCARDRHGGDSSGAFYLWGQGTLVTVSS
chain 2: DIQMTQSPSSLSASVGDRVTITCQASQTINYWLAWYQQKPGKAPKLLIYRASTLASGVPSRFSGSGSGTDFTLTISSLQPEDFATYYCQNYYYSTSRSYGFGGGTKLTVLGRTRTVAAPSVFIFPPSDEQLKSGTASVVCLLNNFYPREAKVQWKVDNALQSGNSQESVTEQDSKDSTYSLSSTLTLSKADYEKHKVYACEVTHQGLSSPVTKSFNRGECGGGGSGGGGSDIQMTQSPSSLSASVGDRVTINCQASESISSWLAWYQQKPGKRPKLLIYKASTLASGVPSRFSGSGSGTDYTLTISSLQPEDFATYYCQGYYLDSSVDDNVFGGGTKLTVLGGGGGSGGGGSGGGGSGGGGSEVQLVESGGGLVQPGGSLRLSCAASGIDFSTYGISWVRQAPGKGLEWIAYIYPDYGITDYASWVNGRFTISLDNAQNTVYLQMNSLRAEDTAVYYCARSGSYYSRGWGAHYFNLWGQGTLVTVSS
B5: A1 (27-07-G02-sc01) (antibody)
chain: DIQMTQSPSSLSASVGDRVTITCQASQTINYWLAWYQQKPGKAPKLLIYRASTLASGVPSRFSGSGSGTDFTLTISSLQPEDFATYYCQNYYYSTSRSYGFGGGTKLTVLGGGGGSGGGGSGGGGSGGGGSEVQLVESGGGLVQPGGSLRLSCAASGFSFSSDYWMCWVRQAPGKGLEWIGCIYAGDVDDTDYASWARGRFTISRDNSKNTVYLQMNSLRAEDTAVYYCARVDGFDITYFDLWGQGTLVTVSS
B6: PRO571 (27-31-C04-sc01) (antibody)
chain: DIQMTQSPSSLSASVGDRVTITCQASESIYRYLSWYQQKPGKAPKLLIYLASTLTSGVPSRFSGSGSGTDFTLTISSLQPEDFATYYCQSNFGTASTTYYNTFGGGTKLTVLGGGGGSGGGGSGGGGSGGGGSEVQLVESGGGLVQPGGSLRLSCAASGFSFSGFYYMCWVRQAPGKGLEWIGCIDTGDGTTYYASWAKGRFTISRDNSKNTVYLQMNSLRAEDTAVYYCARDAAYGGYAYPAHGMDLWGQGTLVTVSS

Columns and labels:
cynomolgus IL-17A [1] = target: T1, cynomolgus IL-17A (cynomolgus); assay: SPR
T1 chain: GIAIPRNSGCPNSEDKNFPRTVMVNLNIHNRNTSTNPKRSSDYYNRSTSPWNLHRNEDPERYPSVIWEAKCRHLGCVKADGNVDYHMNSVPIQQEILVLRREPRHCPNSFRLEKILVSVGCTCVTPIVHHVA

human IL-17A [2] = target: T2, human IL-17A (human); assay: SPR
T2 chain: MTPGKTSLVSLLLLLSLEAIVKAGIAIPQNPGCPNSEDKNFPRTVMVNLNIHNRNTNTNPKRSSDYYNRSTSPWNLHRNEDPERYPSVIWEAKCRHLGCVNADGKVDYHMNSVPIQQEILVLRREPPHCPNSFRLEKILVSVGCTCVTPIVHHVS

human serum albumin [3] = target: T3, human serum albumin (human, UniProt P02768); assay: SPR, pH 7.4
human serum albumin [4] = target: T3, human serum albumin; assay: SPR, pH 5.5
human IL-17A [5] = target: T2, human IL-17A; assay: SPR, direct setup
IL-17B = target: T4, IL-17B (human); assay: competition ELISA
T4 chain: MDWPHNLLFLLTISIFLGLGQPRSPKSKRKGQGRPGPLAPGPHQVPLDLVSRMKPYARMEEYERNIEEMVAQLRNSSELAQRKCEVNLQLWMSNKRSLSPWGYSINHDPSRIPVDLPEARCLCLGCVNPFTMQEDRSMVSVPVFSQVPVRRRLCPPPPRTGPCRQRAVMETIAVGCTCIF

IL-17F = target: T5, IL-17F (human); assay: competition ELISA
T5 chain: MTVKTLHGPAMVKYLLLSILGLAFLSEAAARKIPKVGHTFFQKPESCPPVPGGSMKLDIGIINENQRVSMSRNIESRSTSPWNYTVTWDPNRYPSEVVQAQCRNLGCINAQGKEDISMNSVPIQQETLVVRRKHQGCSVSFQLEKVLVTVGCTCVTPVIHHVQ

cynomolgus IL-17A [6] = target: T1, cynomolgus IL-17A; assay: SPR
IL-17C = target: T6, IL-17C (human); assay: competition ELISA
T6 chain: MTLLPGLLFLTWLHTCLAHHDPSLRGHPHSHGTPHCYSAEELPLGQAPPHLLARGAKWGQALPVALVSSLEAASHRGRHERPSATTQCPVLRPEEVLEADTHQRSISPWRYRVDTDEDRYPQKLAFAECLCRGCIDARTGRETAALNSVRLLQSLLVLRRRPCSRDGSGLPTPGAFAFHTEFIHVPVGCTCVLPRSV

IL-17E = target: T7, IL-17E (human); assay: competition ELISA
T7 chain: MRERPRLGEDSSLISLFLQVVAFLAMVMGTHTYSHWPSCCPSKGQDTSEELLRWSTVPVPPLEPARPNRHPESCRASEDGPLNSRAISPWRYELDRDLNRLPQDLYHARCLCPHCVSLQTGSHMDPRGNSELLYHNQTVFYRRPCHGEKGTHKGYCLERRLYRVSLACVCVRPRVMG

IL-17D = target: T8, IL-17D (human); assay: competition
T8 chain: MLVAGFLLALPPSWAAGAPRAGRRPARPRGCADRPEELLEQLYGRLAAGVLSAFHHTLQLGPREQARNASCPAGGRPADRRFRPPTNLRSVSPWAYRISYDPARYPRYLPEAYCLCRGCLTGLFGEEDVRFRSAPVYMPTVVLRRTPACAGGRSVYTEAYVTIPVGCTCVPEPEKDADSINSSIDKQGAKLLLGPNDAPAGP

human IL-17A [7] = target: T2, human IL-17A; assay: SPR, capture setup

Binder	Kd (human IL-17A [2]) [pM]	Kd (human serum albumin [3]) [pM]	Kd (human serum albumin [4]) [pM]	Kd (human IL-17A [5]) [pM]	binding result (IL-17B)	binding result (IL-17F)	Kd (cynomolgus IL-17A [6]) [pM]	binding result (IL-17C)	binding result (IL-17E)	binding result (IL-17D)	other results
B1	575										Kd (cynomolgus IL-17A [1]): 523 pM
B2		1370	947								
B3	1530										
B4		4790	1670								
B5				140	no binding	no binding	900	no binding	no binding	no binding	
B6				40	no binding	no binding	33	no binding	no binding	no binding	Kd (human IL-17A [7]): 120 pM
